How the values were obtained:
[1] = test system: Micrococcus luteus ATCC 272; experiment: Sensitivity titer on a lawn of the tested strain (control strain); assay type: cell-based; settings: Micrococcus luteus ATCC 272 (control); antibiotic resistance: None
Method: (§1) Trypticase Soy Agar (Difco Laboratories, Detroit, Mich.) plates enriched with 0.3% yeast extract were overlaid with 5 ml of melted TSAYE containing a standardized suspension (0.2 ml of an exponentially growing culture at an optical density of 0.1 at 600 nm) of Micrococcus luteus ATCC 272 (ATCC, Rockville, Md.). In order to assess the activity of mutacin samples, two-fold dilutions were prepared in 0.11% TFA (Sigma Chemical Co., St. Louis, Mo.) and 5 μl of each dilution deposited on top of the indicator plates. Mutacin activity was expressed in arbitrary units, which correspond to the reciprocal of the last dilution giving a clear inhibition zone against M. luteus after 24 h of incubation at 37° C. under aerobic conditions (Parrot et al., 1989, Can. J. Microbiol. 35:366-372).
(§2) The sensitivity of multi-drug resistant strains to mutacin B-Ny266 purified to homogeneity was assessed. In parallel the sensitivity of these strains to nisin was determined.

[2] = test system: Staphylococcus epidermidis 1656; experiment: Sensitivity titer of multi-drug resistant staphylococci clinical isolates; assay type: cell-based; settings: resistant to AM-K-S-CF-E-P-Cl-TE
Method: as §1, §2

[3] = test system: Staphylococcus epidermidis 3176; experiment: as above; assay type: cell-based; settings: resistant to AM-GM-K-CF-E-P-Cl
Method: as §1, §2

[4] = test system: Staphylococcus haemolyticus 2344; experiment: as above; assay type: cell-based; settings: resistant to AM-K-S-CF-E-P-Cl-TE
Method: as §1, §2

Neisseria subflava = experiment: Growth inhibition; assay type: cell-based
[5] = test system: Clostridium bifermentants; experiment: Growth inhibition; assay type: cell-based
Bacillus cereus = experiment: Growth inhibition; assay type: cell-based
[6] = test system: Flavobacterium capsulatum; experiment: Growth inhibition; assay type: cell-based; settings: a Gram-negative strain
[7] = Heat stability of activity; assay type: physicochemical
[8] = Stability of activity to enzymes; assay type: physicochemical
[9] = Polarity calculation from RP-HPLC elution; assay type: physicochemical; settings: calculated from elution at 33.3% acetonitrile, RP-HPLC C18 (Snyder formula)
Method: The polarity was calculated from the percentage of acetonitrile at which the substance eluted according to the formula given by Snyder (Snyder, L. R., 1978, Chromatogr. Sci. 16:223-234).

## Mutacin B-Ny266: type A lantibiotic produced by Streptococcus mutans B-Ny266; F-K-A-W-U-F-A-Abu-P-G-A-A-K-O-G-A-F-N-U-Y-A-SADC
[1]
  titer (highest dilution producing an inhibitory zone on a lawn of the tested strain): 64
[2]
  titer (highest dilution producing an inhibitory zone on a lawn of the tested strain): 16
[3]
  titer (highest dilution producing an inhibitory zone on a lawn of the tested strain): 16
[4]
  titer (highest dilution producing an inhibitory zone on a lawn of the tested strain): 16
Neisseria subflava
  growth inhibition: inhibits the growth
[5]
  growth inhibition: inhibits the growth
Bacillus cereus
  growth inhibition: inhibits the growth
[6]
  growth inhibition: inhibit
[7]; 100° C. for 30 min
  resistance to temperature: resistant
[7]; 121° C. for 30 min
  activity after heat treatment: destroyed
[8]; alpha-chymotrypsin
  activity after enzyme treatment: destroyed
[8]; many enzymes
  resistance to enzymes: resistant
[8]; papain
  activity after enzyme treatment: destroyed
[8]; pronase E
  activity after enzyme treatment: destroyed
[8]; proteinase K
  activity after enzyme treatment: destroyed
[8]; trypsin
  activity after enzyme treatment: destroyed
[9]
  polarity: 8.067

Source: patent US6699839B1, “Lantibiotic from Streptococcus mutans, method of production and use thereof” (Universite Laval, priority 1997, dated 2004)
